In the RNAGym collection of RNA variant scans (doi:10.7554/elife.80360):

B1: HDV Ribozyme (parent)
chain: GGCCGGCAUGGUCCCAGCCUCCUCGCUGGCGCCGGCUGGGCAACAUUCCGAGGGGACCGUCCCCUCGGUAAUGGCGAAUGGGACCCA

Variants of: B1
Test: self-cleavage, relative activity (ratio to wild type); higher = more cleavage; co-transcriptional

Q: With GGCCGGCAUGGUCCCAGCCUCCUCGCUGGCGCCGGCUGGGCAACAUUCCGAGGCGACGGUCCCCUCGGUAAUGGCGAAUGGGACCCA as the variant, how does the self-cleavage read?
A: 1.04

Q: Which self-cleavage does the source give for GGCCGGCAUGGUCCCAGCCUCCUCGCUGGCUCCGGCUGGGCAAUAUUCCGAGGGGACCGUCCCCUCGGUAAUGGCGAAUGGGACCCA here?
A: 0.156

Q: Which self-cleavage does the source give for GGCCGGCAUGGUCCCAGCCUCCUCGCUGGCGCCGGCUGGGCAACAUUGCGAGGGGACCGUCCCCUCGGUAAUGGCGAAGGGGACCCA here?
A: 0.795

Q: Which self-cleavage does the source give for GGCCGGCAUGGUCCCAGCCUCCUCGCUGGCGCCGGGUGGACAACAUUCCGAGGGGACCGUCCCCUCGGUAAUGGCGAAUGGGACCCA here?
A: 0.157

Q: Which self-cleavage does the source give for GGCCGGCAUGGUCCCAGCCUCCUCGCUGGCGCCGGCUGGGCAACAUUGCGAGGGGACCGUCCCAUCGGUAAUGGCGAAUGGGACCCA here?
A: 0.344

Q: For UGCCGGCAUGGUCCCAGCCUCCUCGCUGGCGCCGGCUGGGCAACAUUCCGAGGGGACCGUCCCCUCGGUAAUGGCCAAUGGGACCCA, which self-cleavage is on record?
A: 0.277

Q: Which self-cleavage does the source give for UGCCGGCAUGGUCCCAGCCUCCUCGCUGGCGCCGGCUGGGCAACAUUCCGAGGGGACCAUCCCCUCGGUAAUGGCGAAUGGGACCCA here?
A: 0.442

Q: Which self-cleavage does the source give for GGCCGGCAUGGUCCCAGCCUCCUCGCUGGCGCCGGCUGGGCAACAUUCCGAGGGGUCCGUCCCCUCGGAAAUGGCGAAUGGGACCCA here?
A: 1.04

Q: With GGCCGGCAUGGUCCCAGCCUCCUCGCUUGCGCCGGCUGGGCAACAUUCCGAGGGGACCGUCCCCUCAGUAAUGGCGAAUGGGACCCA as the variant, how does the self-cleavage read?
A: 0.164

Q: For GGCCGGCAUGGUCUCAGCCUCCUCGCUGGCGCCGGCUGCGCAACAUUCCGAGGGGACCGUCCCCUCGGUAAUGGCGAAUGGGACCCA, which self-cleavage is on record?
A: 0.262

Q: Which self-cleavage does the source give for GGCCGGCAUGGUCCCAGCCUCCUCGCUCGCGCCGGCUGGGCAACAUUCCGAGGGGACCGUCCCCUCGUUAAUGGCGAAUGGGACCCA here?
A: 0.0426

Q: Which self-cleavage does the source give for GGCCGGCAUGGUCCCAGCCUCCUCGCUGGCGCCGGCUGGGCAACAUUCCGAGGGGACCGUGCCCUCGGUAAUUGCGAAUGGGACCCA here?
A: 0.327

Q: Which self-cleavage does the source give for GGCCGGCAUGGUCCCAGCCUCCUCGCUGGCGCCGGCUGGGCAACAUUCCGAGGGUACCGUCCCCUCGGUAGUGGCGAAUGGGACCCA here?
A: 1.04

Q: With GGCCGGCAUGGUCCCAGCCUCCUCGCUGGCGGCGGCUGGGCAACAUUCCGAGGGGACCGUCCCCUCGGUAGUGGCGAAUGGGACCCA as the variant, how does the self-cleavage read?
A: 0.0415

Q: With GGCCGGCAUGGUCCCAGCCUCCUCGCUGGCGCCGGCUGGGCACCAUUCCGAGGGGACCGUCCCCUCGGUAAUGGCCAAUGGGACCCA as the variant, how does the self-cleavage read?
A: 0.604

Q: Which self-cleavage does the source give for GGCCGGCAUGGUCCCAGCCUCCUCGCUGGCGCCGGCUGGGCAACAUCCCGAGGGGACCGUCCCCUCGGGAAUGGCGAAUGGGACCCA here?
A: 1.02

Q: For GGCCGGCAUGGUCCCAGCCACCUCGCUGGCGCCGGCAGGGCAACAUUCCGAGGGGACCGUCCCCUCGGUAAUGGCGAAUGGGACCCA, which self-cleavage is on record?
A: 0.0831

Q: Which self-cleavage does the source give for GGCCGGCAUGGUCCCAGCCUCCUCGCUGGCGGCGGCUGGGCAAAAUUCCGAGGGGACCGUCCCCUCGGUAAUGGCGAAUGGGACCCA here?
A: 0.0791

Q: For GGCCGGCAUGGUCACAGCCUCCUCGGUGGCGCCGGCUGGGCAACAUUCCGAGGGGACCGUCCCCUCGGUAAUGGCGAAUGGGACCCA, which self-cleavage is on record?
A: 0.831

Q: For GGCCGGCAUGGUCCCGGCCUCCUCGCUGGCGCCCGCUGGGCAACAUUCCGAGGGGACCGUCCCCUCGGUAAUGGCGAAUGGGACCCA, which self-cleavage is on record?
A: 0.0536

Q: With GGCCGGCAUGGUCCCAGCCUCCUCGAUGGCGCCGGCUGCGCAACAUUCCGAGGGGACCGUCCCCUCGGUAAUGGCGAAUGGGACCCA as the variant, how does the self-cleavage read?
A: 0

Q: Which self-cleavage does the source give for GGCCGGCAUGGUCCCAGCCUCCUCGCUGGCGCCGGCUGGGCAACAUUCCGAGGGGACAGUCCCCUCGGUACUGGCGAAUGGGACCCA here?
A: 0.831

Q: For GGCAGGCAUGGUCCCAGCCCCCUCGCUGGCGCCGGCUGGGCAACAUUCCGAGGGGACCGUCCCCUCGGUAAUGGCGAAUGGGACCCA, which self-cleavage is on record?
A: 0.214

Q: With GGCCGGCAUGGUCCCAGCCUCCUCGCUGGCGCCGGCUGGGCAACAUUCCGAGGGGACCGUCCCCUCGGUAAUGGCGAAUAGGACCAA as the variant, how does the self-cleavage read?
A: 0.532

Q: For GGCCGGCAUGGUCCCAGCCUCCGCGCUGGUGCCGGCUGGGCAACAUUCCGAGGGGACCGUCCCCUCGGUAAUGGCGAAUGGGACCCA, which self-cleavage is on record?
A: 0.203

Q: With GGCCGGCAUGGUCCCAGCCUCCUCGCUGGCGCCGGCUGGGCAACAUUCCGAGGGGACCGUCCCCUCGGUAAUGUCGAAUGGUACCCA as the variant, how does the self-cleavage read?
A: 0.281

Q: Which self-cleavage does the source give for GGCCGGCCUGGUCCCAGCCUCCUCGCUGGCGCCGGCUGGGCAACAUUCCGAGGGGACCGUCCCCUCGGGAAUGGCGAAUGGGACCCA here?
A: 0.712

Q: Which self-cleavage does the source give for GGCCGGCGUGGUCCCAGCCUCCACGCUGGCGCCGGCUGGGCAACAUUCCGAGGGGACCGUCCCCUCGGUAAUGGCGAAUGGGACCCA here?
A: 0.9

Q: With GGCCGGCAUGGUCCCAGCCUCCUCGCGGGCGCCGGCUGGGCAACAUUCCGAGGGGACCGCCCCCUCGGUAAUGGCGAAUGGGACCCA as the variant, how does the self-cleavage read?
A: 0.804

Q: With GGCCGGCAUGGUCCCAGCCUCCUCGCUGGCGCCGGCUGGGCAACAUUCCGAGCGGACCGUCCCCUCGGUAAUGGCGAAUGGGAUCCA as the variant, how does the self-cleavage read?
A: 0.712

Q: Which self-cleavage does the source give for GGCCGGCAUGGUCCCAGCCUCCUCGCUGGCGCCGGCUGGGUAACAUUCCGAGCGGACCGUCCCCUCGGUAAUGGCGAAUGGGACCCA here?
A: 1.05

Q: With GCCCGGCAUGGUCCCAGCCUCCUCGCUGGCGCCGGCUGGGCAACAUUCCGAGGGGACCGUCCCCACGGUAAUGGCGAAUGGGACCCA as the variant, how does the self-cleavage read?
A: 0
